Measurements as given in the nanobody polyreactivity screen of Harvey et al. (2022).

Assay: yeast display, Sf9 membrane polyspecificity reagent, FACS + sequencing; frameworks hold sequencing errors
Outline: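 Galactose induction of a Saccharomyces cerevisiae BJ5465 synthetic nanobody display library ran 36–48 hours. The cells were then stained for 1 hour at 4 °C with 10% biotinylated, detergent-solubilized Sf9 membrane reagent, pulled down on streptavidin microbeads and FACS-sorted into low and high (top ~1%) gates on expression and reagent-binding fluorescence. Labels for polyreactivity follow the gate of origin.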

Sequence	polyreactivity (PSR sort gate)
QVQLVESGGGLVQAGGSLRLSCAASGSTFDDNALGWYRQAPGKERELVAAISSRGSTYYADSVKGLFTISRDNAKNTVYLQMNSLKPEDTAVYYCAKRTYRYYGLNAYYYWGQGTQVTVSS	high polyreactivity
QVQLVESGRGLVHAGGSLRLSCAASGSIFSPYAMGWYRPAPGKEREFVASITFNGGSTYYADSVKGRFTISRDNAKNTVYLQMTSLKPEDTAVYYCAATYWYDTYWLMDYWGQGTQVTVSS	high polyreactivity
QVQLGETGGGLVQAGGSLRLSCAASGFNFGYYVMGWYRQAPGKERELVAAITSGGSKYYADSVKGRFTISRDNAKNTVYLQMNSLKPEDTAVYYCNKYGVVLPGFDEWGQGTQVTVSS	high polyreactivity
QVQLVESGGGLVQAGGSLRLSCAASGITFRAYVMGWYRQAPGKERELVAAINRRGGSTYYADSVKGRFTISRDNEKNTVYLQMNSLKPEDTAVYYCGNGDFDYWGQGTQVTVSS	high polyreactivity
HVQLVESGGGLVQAGGSLRLSCAASGSIFVVYAMGWYRQAPGKERELVASIRTGGSTNYADSVKGRYTISRDNAKNTVYLQMNSLKPEDTAVYYCAAASWNSNRHYYVARYYYWGQGTQVTVSS	high polyreactivity
QVQLVESGGGLVQAGGSLRLSCAASGSIFVSEYVMGWYRQAPGKERELVARIRWSSGSTYYADSVKGRFTISRDNAKNTVYLQMNSLKPEDTAVYYCAKATSSFYHYRYDYWGQGTQVTVSS	low polyreactivity
QVQLVESGGGLVQAGGSLRLSCGASGSISKINAMGWYRQARGKERELVAAINTGDSTYYADSVKGRFTISRDNAKNTVYLQRNSLKPEDTAVYYCAAEGSPTGYDYWGLGTQVTVSS	low polyreactivity
QVQLVESGGGLVQAGGSLRLSCAASGIIFGYYAMGWYRQAPGKVRELVAAISWSGGSTYYADSVKGRFTFSRDNAKNTVYLQMNSLKPEDTAVYYCNAVYVSYTYQQTRSGGYDYWGQGTQVTVSS	high polyreactivity
QVQLVESGGGLVQAGGSLRLSCAAYGITFPSYVMGWYRQAPGKERELVAAISWRGGSTYYADSVKGRFTISRDNAKNTVYLQMNSLKPEDTAVYYCAAEYLVWYTFYPKYDYWGQGTQVTVSS	high polyreactivity
QVQLVESGGGLVQAGGSLRLSCAASGSIFERYAMVWYRQAPGKERELVAAISWSGSSTYYADSVKGRFTISRDNAKNTVYLQMNSLKPEDTAVYYCNKVWIDTGMEYWGQGTQVTVSS	low polyreactivity
QVQLVESGGGLVQAGGSLRLSCAASGITFWSNSMGWYRQAPGKERELVATITSSGGDNTNYADSVKGRFTISRDNAKNSVYLQMNSLKPEDTAVYYCNKEGQQSYRWRMDYWGQGTQVTVSS	low polyreactivity
QVQLVESWGGLVQAGGSLRLICAASRGTFRVYAMGWYRQAPVKERELVAAITWRGGRTYYADSVKGRFTISRDNAKNTVYLQMNSLKPEDTAVYYCAADRYGDLYDYWGQGTQVTVSS	high polyreactivity
QVQLVESGGGLVQAGGSLRLSCAASGFIFPYYARGWYRQAPGKERELVAGITGADSTYYADSVKGRFTISRDNAKNTVYLQMNSLKPEDTAVYYCARKRYSLSRTYNYGYWGQGTQVTVSS	high polyreactivity
QVQLVESGGGLVQAGGTLRLSCAASVSTIAQNAMGWYRQAPGKEREFVAAITGTVGSTYYADSVKGRFTISRDNAKNTVYLQMKSLKPEDTAVYYCNTRGFNGRVYPYDYWGQGTQVTVSS	low polyreactivity
QVQLVESGGGLVQAGGSLRLSCAASGSTFSLYAMGWYRQAPGKERELVAAISQSGSRTYYADSVKGRFTISRDNAKNTVYLQMNSLKPEDTAVYYCAAYSPQTYLRWTYGYWGQGTQVTVSS	high polyreactivity
HLHLPERVGGLVHAGGSLRLSSAASGYISWAGYMGWYRQPPGKERELVATISYGTSTSYADSVKGRFTISRDNAKNSVYLQMNSLKPEDSAVYYCNADWVFTWYDYPNDKYDYWGQGTQVTVSS	low polyreactivity
QVQLVESGGGLVQAGGSLRLSCAASGFTFVDYAMGWYRQAPGKERELVAAITVSGDSTYYADSVKGRFTISRDNAKNTVYLQMNSLKPEDTAVYYCAADPGYYDGGYWGQGTQVTVSS	low polyreactivity
QVQLVESGGGLVQAGGSLRLRSAASGSIIPEYVMGWYRQAPGKERELVAAISWSGGSTYYADSVKGRFTISRDNAKNTDYLQMNSLKPEDTAVYYCNRVPSWRIDYDYWGQGTQVTVSS	low polyreactivity
QVQLVESGGGLVQAGGSLRLSCAASGSIIRRNVMGWYRQAPGKERELVAASSWSGDRTYYADSVKGRFTISRDNAKNTVYLQMNSLKPEDTAVYYCAAANASPRRYGQYDYWGQGTQVTVSS	high polyreactivity
QVQLVESGGGLVQAGGSLRLSCAASGLIFPTNAMGWYRPAPGKERELVAAISSVGSTYYADSVKGRFTISRDNAKNTVYLQMNSLKPEDTAVYYCAAYWYGSQYKWRYDYWGQGTQVTVSS	low polyreactivity
QVQLVESGGGLVQAGGSLRLSCAASGFTFTYYALGGYRQAPGKERELVARIRGRSGSTYYADSVKGRFTISRDNAKNTVYLQMNSLKPEDTAVYYCNADFNRTVAGTPEVDYWGQGTQVTVSS	high polyreactivity
QVQLVESGGGLVQAGGSLRLSCAASGIIFVSYAMGWYRQAPGKERELVAAITRRGSRTYYADSVKGRFTISRDNAKNTVYLQMNSLKPEDTAVYYCAADSQAARYHAYDYWGQGTQVTVSS	high polyreactivity

Sequence	polyreactivity (PSR sort gate)
QFQLVETGGGLVQAGGSLRLSSAASGSTFTLYAMGWYRQAPGKERELVATITGSGGSTNYADSVKGRFTISRDNAKNTVYLQMNSLKPEDTAVYYCAADYAVYSFTEFNYWGQGTQVTVSS	high polyreactivity
QVQLVESGGGLVQAGGSLRLSCAASGSTFDDNAMGWYRQAPGKERELVASINYSTGSTYYADSVKGRFTISRDNAKNTVYLQMNSLKPEDTAVYYCAKDLRRYLSWWYRYPYDYWGQGTQVTVSS	low polyreactivity
QVQLVESGGGLVQAGGSLRLSCAASGSTFTRNAKGWYRQAPGKERELVAAITSSGSRTYYADSVKGRFTISRDNAKNTVYLQMNRLKPEDTAVYYCAGLGDTRYVAMDHWGQGTQVTVSS	high polyreactivity
QVQLVESGGGLVQAGGSLRLSCAASGYTFPLYAMGLYRQAPGKEWELVADINIGGASTYYADSVKGRFTISRDHAKNTVYLQMNSLKPEDTAVYYCAKEYYDGYFPTFDYDYWGQGTQVTGSS	low polyreactivity
QVQLVESGGGLVQAGGSLRLSCAASGSIFITYAMGWYRQAPGKERELVAAIRDSGDRTYYADSVKGRFTISRDYAKNTVYLQMNSLKPEDTAVYYCNARWQEPLKYDYWGQGTQVTVSS	low polyreactivity
QVQLVESGGGLVQAGGSLRLSCAASGRTFTEYAMGWYRQAPGKERELVAGIDSGSGSTYYADSVKGRFTISRDNAKNTVYLQMNSLKPEDTAVYYCAADHAYYRYDYWGQGTQVTVSS	low polyreactivity
QVQLVESGGGLVQAGGSLRLSCAASGRNFPVNAMGWYRQAPGKERELVATISYSGSSTYYADSVKARFTISRDNAKNTVYLQMNSLKPEDTAVYYCNADAESFDDGYWGQGTEVTVSS	low polyreactivity
QVQLVESGGGLVQAGGSLRLSCAASGSIFGTNAMGWYRQAPGKERELVAAINSGGSTNYADSVKGRFTISRDNAKNTVYLQMNSLKPEDTAVYYCAADEGLWSPSRNAYDYDYWGQGTQVSVSS	low polyreactivity
QVQLVESGGRLVQAGGSLRLSCAASGRIFLNYDMGWYRQAHGKERELVAAITWSTGSTYADSVKGRFTISRDNAKNNVYLKMNSLKPEVTAVYYCAAPWGQTDDRHKGGDYWGQGSQVTVSS	low polyreactivity
QVQLVESGGGLVQAGVRLRLSCAASGITFYINAMGGYRQAPGKERELVAVIDSRGSSTFYADSVKGRFTISRDTAKNTVYLQMNSLKPEDTAVYYCAAEAPSWYDRQYDYCGQGTQVTVSS	low polyreactivity
QVQLVESGGGLVQAGGSLRLSCAASGRTFTWYAMGWYRQAPGKEREFVAAISFSGGSTYYADSVKGRFTISRDYAKNTVFLQMNSLKPEDTAVYYCARPSGDAWEGPRMDYWGQGTQVTVSS	low polyreactivity
QVELVESGGGLVQGGGTLRLSCAASGRTFNRYAMGWYRQAPGKERELVASITRSGGSTYYADSVKGRFTISRENAKNTVSLQMNSLKPDHTAVYYCANRSSGCFGYWGQGTQVTLSS	high polyreactivity
QVQLVESGGGLVQAGGSLRLSCAASGSIFWYYAMGWYRQAPGKERELVATIRKRSGSTYYADSVKGRFTISRDNAKNTVYLQMNSLKPEDTAVYYCAADYTAYGYDYWGQGTQVTVSS	low polyreactivity
QVQLVESGGGLVQAGGSLRLSCASSGNIFDIYAMGWYRQAPGKERELVAAITSSGGSTYYADSVKGRCTISRDNAKNTVYLQMNSLKPEDTAVYYCNAVSLVQKGDYWGQGTQVTVSS	high polyreactivity
QVKLVASGGGLVQEGGSLRLSCAASGRIFGNYAMGWYRQAPGKERELVAAIDLSGDSTYYADSVKGRFTISRDNAKNTVYLQMNSLKPEDTAVYYCAADPDLLWEYSDGYYGGDGGYWGQGTQVTVSS	low polyreactivity
QVQLEESGGGLVQAGGSLRLSCAASGIISTVYAMGWYRQAPGKERELVAAISCSGGSTYYADSLKGSFTISRDNENNTVYLQMNSLKPEDTAVYYCSKGYQYQGNSYGYWGQGTQVTVSS	low polyreactivity
QVQLVESGGGLVHAGGSLRLSCAASGFTFEYNAMGWYRQAPGKERELVAVITYRGGSTYYADSVKGRFTISRDNAKHTVYLQMNSLKPEDTAVYYCAADSVTYGGDYWGQGTQVTVSS	high polyreactivity
QVQLVESGGGLVQAGGSLRLSCAASGSNFDYNTMGWYRQAPGKEREFVAAISSSGGGTSYADSVKGRFTISRDNAKNTVYLQMNSLKPEDTAVYYCAALIKLTPYQRQYWKYRAYYYGGQGTQVTVSS	high polyreactivity
QVQLEESGGGLVHAGGSLPLSCAASGGTFYKYAMGSYRQAPGKERELVARISRCGSTYYADSVNGRFTISRDNAKNTVYLQMNSLKPEDTAVYYCAKRWFAGWPIVVPYNYWGQGTQVTVSS	high polyreactivity
QVQLVESGGGLVQAGGSIRLSCAASGSIYKSNTMGRYRQAPGKEREFVAAISWGGGSTYYADSVKGRFTISRDNAKHTVYLQMNSLKPEDTAVYYCATRPGTRPAYDYWGQGTQVTVSS	high polyreactivity
QVQLVESGGGLLQAGGSLRLSCAASGYIFQYYAMGWYRQAPGKERELVAAITGGGSTKYADSVKGRFTISRDNAKNTVYLQMNSLKPEDTAVYYCAASLWYRISKYDYWGQGTQVTVSS	high polyreactivity
